The supplement of paper PMC9112550, “Optimization of the antimicrobial peptide Bac7 by deep mutational scanning” (BMC Biology, 2022)

test system: Escherichia coli TOP10; test: shrunken log2 fold change of peptide-encoding DNA abundance (4.5 h post-induction vs induction); higher = less antimicrobial activity (less host growth inhibition); settings: time post-induction: 4.5 h; library: site-saturation at positions 5, 18, 19, 20
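Further: peptides expressed intracellularly from a pBAD plasmid library in pooled LB shake-flask culture, induced with 0.3% L-arabinose, DNA abundance read by NGS, three biological replicates, DESeq2 with apeglm shrinkage.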

Sequence | shrunken log2 fold change
RRIRNRPPRLPRPRPRPQRGPRP | 0.237
RRIRTRPPRLPRPRPRPLTHPRP | -0.0616
RRIRYRPPRLPRPRPRPCYCPRP | -0.185
RRIRVRPPRLPRPRPRPIHSPRP | -0.252
RRIRPRPPRLPRPRPRPNQNPRP | -0.178
RRIRDRPPRLPRPRPRPNIDPRP | 0.068
RRIRYRPPRLPRPRPRPRECPRP | -0.154
RRIRKRPPRLPRPRPRPSWKPRP | 0.0521
RRIRARPPRLPRPRPRPPVEPRP | 0.292
RRIRCRPPRLPRPRPRPRHTPRP | -0.0438
RRIRVRPPRLPRPRPRPKVRPRP | 0.0291
RRIRARPPRLPRPRPRPIILPRP | -0.262
RRIRRRPPRLPRPRPRPPCTPRP | 1.59
RRIRYRPPRLPRPRPRPRLPPRP | -0.0393
RRIRARPPRLPRPRPRPFFAPRP | 0.67
RRIRKRPPRLPRPRPRPSKMPRP | 0.025
RRIRRRPPRLPRPRPRPTKNPRP | 0.395
RRIRYRPPRLPRPRPRPTHVPRP | -0.27
RRIRARPPRLPRPRPRPKLFPRP | 0.233
RRIRTRPPRLPRPRPRPCLRPRP | 0.0877
RRIRGRPPRLPRPRPRPSNFPRP | 0.0228
RRIRQRPPRLPRPRPRPFFIPRP | -0.365
RRIRWRPPRLPRPRPRPWAMPRP | 0.0321
RRIRRRPPRLPRPRPRPNQGPRP | 0.134
RRIRRRPPRLPRPRPRPFHCPRP | 0.089

Sequence | shrunken log2 fold change
RRIRPRPPRLPRPRPRPYSYPRP | -0.228
RRIRIRPPRLPRPRPRPGLHPRP | -0.000332
RRIRQRPPRLPRPRPRPAWKPRP | 0.0232
RRIRTRPPRLPRPRPRPTMGPRP | 0.0301
RRIRGRPPRLPRPRPRPDNIPRP | 0.119
RRIRTRPPRLPRPRPRPWSHPRP | -0.113
RRIRNRPPRLPRPRPRPIYRPRP | -0.356
RRIRARPPRLPRPRPRPHCMPRP | 0.19
RRIRPRPPRLPRPRPRPNPFPRP | -0.382
RRIRKRPPRLPRPRPRPYDRPRP | 0.192
RRIRWRPPRLPRPRPRPATAPRP | 0.983
RRIRIRPPRLPRPRPRPRSRPRP | 0.0781
RRIRSRPPRLPRPRPRPQDRPRP | -0.0318
RRIRDRPPRLPRPRPRPLDTPRP | 0.0803
RRIRFRPPRLPRPRPRPRGWPRP | 0.9
RRIRIRPPRLPRPRPRPQRHPRP | -0.401
RRIRRRPPRLPRPRPRPQCTPRP | -0.122
RRIRCRPPRLPRPRPRPWNTPRP | -0.575
RRIRNRPPRLPRPRPRPKEYPRP | 0.199
RRIRSRPPRLPRPRPRPMYVPRP | -0.84
RRIRTRPPRLPRPRPRPFGMPRP | 0.00903
RRIRLRPPRLPRPRPRPHPEPRP | 0.0233
RRIRNRPPRLPRPRPRPWAMPRP | -0.175
RRIRPRPPRLPRPRPRPQVEPRP | 0.102
RRIRLRPPRLPRPRPRPAVIPRP | -0.339

Sequence | shrunken log2 fold change
RRIRNRPPRLPRPRPRPCAKPRP | -0.0333
RRIRKRPPRLPRPRPRPYHMPRP | -0.0573
RRIRCRPPRLPRPRPRPKRMPRP | 0.118
RRIRKRPPRLPRPRPRPMRIPRP | 0.34
RRIRDRPPRLPRPRPRPAHPPRP | -0.203
RRIRVRPPRLPRPRPRPAIPPRP | -0.356
RRIRDRPPRLPRPRPRPVHWPRP | 0.31
RRIRIRPPRLPRPRPRPPFRPRP | -0.0473
RRIRQRPPRLPRPRPRPWNCPRP | -0.0444
RRIRERPPRLPRPRPRPSIVPRP | -0.443
RRIRTRPPRLPRPRPRPHCPPRP | -0.605
RRIRERPPRLPRPRPRPIWCPRP | 0.000213
RRIRRRPPRLPRPRPRPHTNPRP | -0.547
RRIRERPPRLPRPRPRPELFPRP | 0.201
RRIRHRPPRLPRPRPRPNYDPRP | -0.471
RRIRWRPPRLPRPRPRPINVPRP | -0.0356
RRIRGRPPRLPRPRPRPFKSPRP | 0.08
RRIRKRPPRLPRPRPRPLHCPRP | 0.0213
RRIRVRPPRLPRPRPRPHLSPRP | -0.301
RRIRPRPPRLPRPRPRPFMGPRP | -0.448
RRIRDRPPRLPRPRPRPHDFPRP | -0.00663
RRIRQRPPRLPRPRPRPVSFPRP | -0.309
RRIRARPPRLPRPRPRPKKFPRP | 0.138
RRIRFRPPRLPRPRPRPQWFPRP | -0.344
RRIRRRPPRLPRPRPRPIVPPRP | 0.605
